Here are results for two substances from publication PMC5666004.

Assay [1] concerns the target Htt-N20-GB1 (N-terminal 20-residue fragment of Htt with GB1 fused at the C terminus) (UniProt P42858). The assay is described as follows: NMR titration; 15N-labelled Htt-N20-GB1 or mutants (50 μM) titrated with HSP90 constructs or HSP70; [1H,15N] HSQC peak intensities; 20 mM phosphate, 50 mM NaCl, pH 6.5, 25 °C.
Assay [2] deals with Htt-N20^S13P-GB1 (UniProt P42858). The description is as above.
For assay [3], the target named is HSP90-MC (residues 236–696) (UniProt P07900). The assay is described as follows: SEC; Superdex-200 Increase 10/300 GL, ~100 μM protein loaded; 20 mM phosphate, 50 mM NaCl, pH 6.5; apparent molecular weights from calibration with standard proteins.

With “HSP90(1–696) (from UniProt P07900 1-696) (domain or fragment)”, the average relative peak intensity of the Htt-N20 moiety at a 1:1 ratio in assay [1] came to 0.59; in assay [2], 0.86.

For the substance “HSP90-MC (residues 236–696) (from UniProt P07900 236-696) (domain or fragment)”, the stoichiometry N in assay [3] worked out at 2.
